Measurements reported in paper PMC4627068 (Nucleic Acids Research, 2015).

How the values were obtained:
[1] = biological target: β' subunit of Bacillus subtilis RNAP-σ^A (Bacillus subtilis, UniProt P37871 1-1199); assay: far-Western, overlay or dot blot
[2] = biological target: the molecule itself; assay: far-Western, overlay or dot blot

Chain of β' subunit of Bacillus subtilis RNAP-σ^A (P37871 whole entry): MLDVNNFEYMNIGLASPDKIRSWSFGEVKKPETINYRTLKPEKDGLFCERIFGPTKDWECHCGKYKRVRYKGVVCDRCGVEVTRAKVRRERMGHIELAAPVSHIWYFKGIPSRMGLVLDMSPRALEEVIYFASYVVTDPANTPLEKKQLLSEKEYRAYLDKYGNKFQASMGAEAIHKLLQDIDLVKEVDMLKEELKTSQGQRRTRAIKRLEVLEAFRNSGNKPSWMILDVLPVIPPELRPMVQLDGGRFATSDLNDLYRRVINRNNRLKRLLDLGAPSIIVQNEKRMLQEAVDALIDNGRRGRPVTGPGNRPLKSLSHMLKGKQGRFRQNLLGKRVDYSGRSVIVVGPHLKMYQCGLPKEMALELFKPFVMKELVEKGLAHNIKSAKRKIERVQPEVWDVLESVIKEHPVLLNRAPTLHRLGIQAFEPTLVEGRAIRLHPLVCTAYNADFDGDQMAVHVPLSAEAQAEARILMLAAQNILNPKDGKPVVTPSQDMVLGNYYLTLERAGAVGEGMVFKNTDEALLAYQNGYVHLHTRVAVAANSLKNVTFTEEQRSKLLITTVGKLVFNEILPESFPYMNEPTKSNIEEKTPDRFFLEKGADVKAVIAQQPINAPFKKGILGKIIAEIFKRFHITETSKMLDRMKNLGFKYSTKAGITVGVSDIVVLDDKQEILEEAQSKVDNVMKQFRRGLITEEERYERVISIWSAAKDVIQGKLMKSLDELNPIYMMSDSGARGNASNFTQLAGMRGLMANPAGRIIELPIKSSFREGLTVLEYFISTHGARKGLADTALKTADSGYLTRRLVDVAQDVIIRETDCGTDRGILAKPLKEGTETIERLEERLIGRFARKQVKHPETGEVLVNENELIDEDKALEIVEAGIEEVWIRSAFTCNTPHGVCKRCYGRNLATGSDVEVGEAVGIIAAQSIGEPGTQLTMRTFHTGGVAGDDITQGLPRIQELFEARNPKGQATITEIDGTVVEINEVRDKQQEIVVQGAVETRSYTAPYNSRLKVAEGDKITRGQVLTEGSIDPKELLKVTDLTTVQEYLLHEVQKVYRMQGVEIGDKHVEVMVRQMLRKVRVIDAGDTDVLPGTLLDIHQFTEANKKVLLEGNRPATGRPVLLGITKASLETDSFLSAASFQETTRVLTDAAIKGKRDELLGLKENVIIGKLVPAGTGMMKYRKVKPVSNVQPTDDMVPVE

B1: ω2 (homodimeric form of the plasmid pSM19035 ω protein) (natural protein, Streptococcus pyogenes, UniProt Q57468 1-71, looked up)
chain: MIVGNLGAQKAKRNDTPISAKKDIMGDKTVRVRADLHHIIKIETAKNGGNVKEVMDQALEEYIRKYLPDKL
B1: binds [1]; binds [2].
